Assay results: patent US20240174992A1, “SPLIT MODIFIED DEHALOGENASE VARIANTS” (Promega Corporation, priority 2022, published 2024)
Blank lines part the entries; values can stand above or below the binder they belong to.

Legend:
Test in all cases: cell-based or functional assay
[1] = target: spHT 180 C-terminal fragment [181-297] fused to FRB or FKBP
[2] = target: spHT 145 C-terminal fragment [146-297] fused to FRB or FKBP
[3] = target: spHT 133 C-terminal fragment [134-297] fused to FRB or FKBP
[4] = target: spHT 157 C-terminal fragment [158-297] fused to FRB or FKBP
[5] = target: spHT 80 C-terminal fragment [81-297] fused to FRB or FKBP
[6] = target: spHT 195 C-terminal fragment [196-297] fused to FRB or FKBP
[7] = target: spHT 19 C-terminal fragment [20-297] fused to FRB or FKBP

fold increase in JF646 fluorescence with 50 nM rapamycin (E. coli lysates) [1]: > 2 fold
B1: spHT 180 N-terminal fragment [1-180] fused to FRB or FKBP (protein, part only; not given: FRB or FKBP partner, orientation, part only)
chain, part: MAEIGTGFPFDPHYVEVLGERMHYVDVGPRDGTPVLFLHGNPTSSYVWRNIIPHVAPTHRCIAPDLIGMGKSDKPDLGYFFDDHVRFMDAFIEALGLEEVVLVIHDWGSALGFHWAKRNPERVKGIAFMEFIRPIPTWDEWPEFARETFQAFRTTDVGRKLIIDQNVFIEGTLPMGVVRP

fold increase in JF646 fluorescence with 50 nM rapamycin (E. coli lysates) [4]: > 2 fold
B4: spHT 157 N-terminal fragment [1-157] fused to FRB or FKBP (protein, part only; not given: FRB or FKBP partner, orientation, part only)
chain, part: MAEIGTGFPFDPHYVEVLGERMHYVDVGPRDGTPVLFLHGNPTSSYVWRNIIPHVAPTHRCIAPDLIGMGKSDKPDLGYFFDDHVRFMDAFIEALGLEEVVLVIHDWGSALGFHWAKRNPERVKGIAFMEFIRPIPTWDEWPEFARETFQAFRTTDV

fold increase in JF646 fluorescence with 50 nM rapamycin (E. coli lysates) [5]: > 2 fold
B5: spHT 80 N-terminal fragment [1-80] fused to FRB or FKBP (protein, part only; not given: FRB or FKBP partner, orientation, part only)
chain, part: MAEIGTGFPFDPHYVEVLGERMHYVDVGPRDGTPVLFLHGNPTSSYVWRNIIPHVAPTHRCIAPDLIGMGKSDKPDLGYF

increase in JF646 fluorogenic signal at a N:C fragment ratio of 10 [7]: 25% | increase in TMR labeling efficiency on raising the N:C fragment ratio from 1.25 to 10 [7]: > 100%
Binder: MAEIGTGFPFDPHYVEVLG (peptide, part only; not given: FRB or FKBP partner, orientation, part only) [spHT 19 N-terminal fragment [1-19] fused to FRB or FKBP]

Continued, binder first:

B2: spHT 145 N-terminal fragment [1-145] fused to FRB or FKBP (protein, part only; not given: FRB or FKBP partner, orientation, part only)
chain, part: MAEIGTGFPFDPHYVEVLGERMHYVDVGPRDGTPVLFLHGNPTSSYVWRNIIPHVAPTHRCIAPDLIGMGKSDKPDLGYFFDDHVRFMDAFIEALGLEEVVLVIHDWGSALGFHWAKRNPERVKGIAFMEFIRPIPTWDEWPEFA
fold increase in JF646 fluorescence with 50 nM rapamycin (E. coli lysates) [2]: > 2 fold

B3: spHT 133 N-terminal fragment [1-133] fused to FRB or FKBP (protein, part only; not given: FRB or FKBP partner, orientation, part only)
chain, part: MAEIGTGFPFDPHYVEVLGERMHYVDVGPRDGTPVLFLHGNPTSSYVWRNIIPHVAPTHRCIAPDLIGMGKSDKPDLGYFFDDHVRFMDAFIEALGLEEVVLVIHDWGSALGFHWAKRNPERVKGIAFMEFIR
fold increase in JF646 fluorescence with 50 nM rapamycin (E. coli lysates) [3]: > 2 fold

B6: spHT 195 N-terminal fragment [1-195] fused to FRB or FKBP (protein, part only; not given: FRB or FKBP partner, orientation, part only)
chain, part: MAEIGTGFPFDPHYVEVLGERMHYVDVGPRDGTPVLFLHGNPTSSYVWRNIIPHVAPTHRCIAPDLIGMGKSDKPDLGYFFDDHVRFMDAFIEALGLEEVVLVIHDWGSALGFHWAKRNPERVKGIAFMEFIRPIPTWDEWPEFARETFQAFRTTDVGRKLIIDQNVFIEGTLPMGVVRPLTEVEMDHYREPFLN
fold increase in JF646 fluorescence with 50 nM rapamycin (E. coli lysates) [6]: > 2 fold
